This is an account of results in US20180037622A1.

One may read the IC50 as the concentration at which inhibition is half-maximal. Read a low IC50 as higher potency.

Where two headings read alike, the source gives them in different places.

What all share (assay): cell-based or functional assay
Experiment [1] has as its target T1, Activin A (UniProt P08476).
T1 sequence (looked up): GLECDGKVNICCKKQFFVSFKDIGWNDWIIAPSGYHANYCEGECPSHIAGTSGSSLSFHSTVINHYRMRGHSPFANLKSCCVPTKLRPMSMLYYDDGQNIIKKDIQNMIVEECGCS

Experiment [2] deals with T2, Growth and Differentiation Factor-11 (GDF11) (UniProt O95390).
T2 sequence (looked up): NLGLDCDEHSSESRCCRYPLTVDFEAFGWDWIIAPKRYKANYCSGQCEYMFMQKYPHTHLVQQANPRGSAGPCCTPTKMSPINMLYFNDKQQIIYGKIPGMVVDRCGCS

Experiment [3] deals with T1, Activin A. This is another data set of the same source.
For experiment [4], the target named is T2, Growth and Differentiation Factor-11 (GDF11). This is another data set of the same source.

B1: ActRIIB(20-131)-hFc (Fc fusion, not shown: a dimerising Fc or GST)
chain: GRGEAETRECIYYNANWELERTNQSGLERCEGEQDKRLHCYASWRNSSGTIELVKKGCWLDDFNCYDRQECVATEENPQVYFCCCEGNFCNERFTHLPEAGGPEVTYEPPPT
In the case of B1, the IC50 with Activin A [1] was 0.044 µg/mL; in experiment [2] it was 0.12 µg/mL; with Activin A [3] it was 0.201 µg/mL; in experiment [4] it was 0.183 µg/mL.

B2: ActRIIB(24-131)-hFc (Fc fusion, not shown: a dimerising Fc or GST)
chain: AETRECIYYNANWELERTNQSGLERCEGEQDKRLHCYASWRNSSGTIELVKKGCWLDDFNCYDRQECVATEENPQVYFCCCEGNFCNERFTHLPEAGGPEVTYEPPPT
As for B2, the values for the IC50 (with Activin A [3]; in experiment [4]) were 0.105 µg/mL and 0.069 µg/mL, respectively.

B3: ActRIIB(23-131)-hFc (Fc fusion, not shown: a dimerising Fc or GST)
chain: EAETRECIYYNANWELERTNQSGLERCEGEQDKRLHCYASWRNSSGTIELVKKGCWLDDFNCYDRQECVATEENPQVYFCCCEGNFCNERFTHLPEAGGPEVTYEPPPT
With B3, the results for the concentration for half-maximal inhibition (IC50) (with Activin A [3]; in experiment [4]) were 0.043 µg/mL and 0.06 µg/mL, respectively.

B4: ActRIIB(22-131)-hFc (Fc fusion, not shown: a dimerising Fc or GST)
chain: GEAETRECIYYNANWELERTNQSGLERCEGEQDKRLHCYASWRNSSGTIELVKKGCWLDDFNCYDRQECVATEENPQVYFCCCEGNFCNERFTHLPEAGGPEVTYEPPPT
Consider B4, for which the results for the concentration for half-maximal inhibition (IC50) (with Activin A [3]; in experiment [4]) were 0.1 µg/mL and 0.071 µg/mL, respectively.

B5: ActRIIB(21-131)-hFc (Fc fusion, not shown: a dimerising Fc or GST)
chain: RGEAETRECIYYNANWELERTNQSGLERCEGEQDKRLHCYASWRNSSGTIELVKKGCWLDDFNCYDRQECVATEENPQVYFCCCEGNFCNERFTHLPEAGGPEVTYEPPPT
As for B5, the IC50 was 0.325 µg/mL with Activin A [3] and 0.121 µg/mL in experiment [4].

B6: ActRIIB(20-132)-hFc (Fc fusion, not shown: a dimerising Fc or GST)
chain: GRGEAETRECIYYNANWELERTNQSGLERCEGEQDKRLHCYASWRNSSGTIELVKKGCWLDDFNCYDRQECVATEENPQVYFCCCEGNFCNERFTHLPEAGGPEVTYEPPPTA
With B6, the IC50 in the experiment with Activin A [1] was 0.032 µg/mL; in experiment [2], 0.087 µg/mL.

B7: ActRIIB(20-128)-hFc (Fc fusion, not shown: a dimerising Fc or GST)
chain: GRGEAETRECIYYNANWELERTNQSGLERCEGEQDKRLHCYASWRNSSGTIELVKKGCWLDDFNCYDRQECVATEENPQVYFCCCEGNFCNERFTHLPEAGGPEVTYEP
Consider B7, for which the IC50 was found to be 0.158 µg/mL in the experiment with Activin A [1] and 0.13 µg/mL in experiment [2].

B8: ActRIIB-Fc A64 20-134 (Fc fusion, not shown: a dimerising Fc or GST)
chain: GRGEAETRECIYYNANWELERTNQSGLERCEGEQDKRLHCYASWANSSGTIELVKKGCWLDDFNCYDRQECVATEENPQVYFCCCEGNFCNERFTHLPEAGGPEVTYEPPPTAPT
Consider B8, for which the Activin Inhibition Activity (KI) with Activin A [1] turned out to be 1000 nM. The GDF11 Inhibition Activity (KI) in experiment [2] turned out to be 1000 nM.
